logFC.mWT.over.Luc data for 29 substances are collected here from patent US20240368668A1, “SUBSTRATES AND BIOMARKERS OF ADAMTS7” (The Broad Institute, Inc., priority 2021, published 2024).

Square brackets hold non-standard residues; d marks the D form. Ends that are not written are not given here.

In one experiment the target is T1, mouse ADAMTS7 (Mus musculus, UniProt Q68SA9).
T1 construct: Full-length mouse Adamts7 1-1857 (Uniprot Q68SA9, WT or E373Q catalytic mutant); expressed in transfected cells; host or cells: Human Coronary Artery Smooth Muscle Cells (HCA-SMC, Lonza), adenovirus 50 MOI
T1 sequence (Q68SA9 221-1657): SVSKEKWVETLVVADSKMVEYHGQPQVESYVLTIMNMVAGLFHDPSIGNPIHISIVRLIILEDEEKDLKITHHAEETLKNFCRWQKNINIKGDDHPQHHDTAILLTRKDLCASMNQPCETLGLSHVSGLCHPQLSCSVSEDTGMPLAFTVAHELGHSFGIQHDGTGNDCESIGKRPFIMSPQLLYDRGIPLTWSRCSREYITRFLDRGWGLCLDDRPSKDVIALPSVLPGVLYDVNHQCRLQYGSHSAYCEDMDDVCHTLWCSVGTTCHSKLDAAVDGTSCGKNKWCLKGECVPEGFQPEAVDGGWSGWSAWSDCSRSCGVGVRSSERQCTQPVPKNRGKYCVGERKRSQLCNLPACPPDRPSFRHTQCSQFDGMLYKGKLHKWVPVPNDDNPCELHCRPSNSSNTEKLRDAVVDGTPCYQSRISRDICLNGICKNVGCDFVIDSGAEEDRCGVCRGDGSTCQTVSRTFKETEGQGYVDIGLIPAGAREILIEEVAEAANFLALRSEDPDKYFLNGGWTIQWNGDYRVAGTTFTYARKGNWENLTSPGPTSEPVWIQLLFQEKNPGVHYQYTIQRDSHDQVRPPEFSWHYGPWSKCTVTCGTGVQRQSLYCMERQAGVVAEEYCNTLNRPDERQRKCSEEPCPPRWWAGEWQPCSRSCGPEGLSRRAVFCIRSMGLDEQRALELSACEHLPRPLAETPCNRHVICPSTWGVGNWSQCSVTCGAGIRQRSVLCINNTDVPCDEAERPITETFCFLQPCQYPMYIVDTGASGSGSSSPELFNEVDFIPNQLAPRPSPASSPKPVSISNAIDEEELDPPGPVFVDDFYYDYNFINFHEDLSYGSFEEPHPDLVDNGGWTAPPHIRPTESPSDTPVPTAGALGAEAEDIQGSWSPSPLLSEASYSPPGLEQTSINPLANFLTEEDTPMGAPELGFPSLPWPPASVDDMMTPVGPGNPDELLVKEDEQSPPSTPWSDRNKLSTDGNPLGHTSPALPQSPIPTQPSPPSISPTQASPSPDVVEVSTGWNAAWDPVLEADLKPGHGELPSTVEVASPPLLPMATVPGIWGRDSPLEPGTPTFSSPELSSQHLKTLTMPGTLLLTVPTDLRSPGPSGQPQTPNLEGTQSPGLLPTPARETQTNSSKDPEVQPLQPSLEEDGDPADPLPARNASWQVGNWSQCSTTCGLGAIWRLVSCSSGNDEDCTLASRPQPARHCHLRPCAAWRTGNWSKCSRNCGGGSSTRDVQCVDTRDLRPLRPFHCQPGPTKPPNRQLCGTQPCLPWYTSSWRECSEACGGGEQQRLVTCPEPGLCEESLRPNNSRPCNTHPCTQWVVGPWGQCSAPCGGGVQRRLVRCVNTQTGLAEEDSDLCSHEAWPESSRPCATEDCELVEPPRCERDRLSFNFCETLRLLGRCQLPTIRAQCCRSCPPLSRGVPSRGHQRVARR
Kind of experiment: TMT10 TAILS N-terminomics, SMC2 experiment (process replicates, trypsin/AspN digest). The experiment is classed as cell-based. As to conditions: SMC2_TAILS HC; log fold change of N-terminal peptide, Ad-mADAMTS7 WT over Luc. The source says: ADAMTS7 Expression, Cell Culture and Preparation of the Secreted Proteins—Full-length mouse Adamts7 1-1857 (Uniprot Q68SA9, WT or E373Q catalytic mutant) with a carboxyl terminal 3xFLAG tag was used to generate custom adenoviruses as previously described. Adeno-CMV-Luciferase (Ad-Luc) from Vector Biolabs was used as a negative control. Human Coronary Artery Smooth Muscle Cells (HCA-SMC) were obtained from Lonza and expanded in Lonza SmGM-2 media in 15 cm tissue culture plates. Twenty-four hours before media collection, near confluent plates were transduced with 50 MOI adenovirus and switched to Lonza Basal SM media with volumes of 20 ml per 15 cm plate. Expression of the Flag tagged ADAMTS7 was confirmed from the media using western blot and detected using the anti-Flag M2-HRP antibody (Sigma, A8592). Collected media was processed by adding protease inhibitors (1 mM EDTA and 1 mM PMSF) and clarified by 500 g×5 min spin at 4 C to pellet cell debris. Cell media supernatants were then passed through a 0.22 um filter and kept chilled. Processed media was then concentrated 50-100× using 3 kDa Centricon Plus-70 filter unit, spun at 3,500 g×60 min at 4 C. Approximately 10% of the processed, concentrated media was set aside for total secretome proteolytic analysis. The remaining 90% of the processed, concentrated media was buffer exchanged into 50 mM HEPES pH 8.0, 150 mM NaCl (2×50 ml) using the 3 kDa Centricon Plus-70 filter unit and concentrated to >2 mg/ml to serve as input for the TAILS experiment. Secretome and TAILS input samples were stored at −80° C.
For the first experiment, referred to as SMC1, 120 ml of media from 6×15 cm dishes was pooled from each condition (Luc, WT, EQ) and processed to produce three separate inputs for the TAILS experiment. Luc, WT and EQ inputs from the SMC1 experiment were each divided into triplicate 400 ug samples to generate technical replicate TAILS data. For the second experiment, referred to as SMC2, media was processed separately in triplicate for each condition (Luc1, Luc2, Luc3, WT1, WT2, WT3, EQ1, EQ2, EQ3) using 60 ml of media from 3×15 cm dishes for each process replicate. Inputs from the SMC2 experiment used process replicates of 300 ug each to generate TAILS data. The third experiment used input from cultured Human umbilical vein endothelial cells (HUVEC) from Lifeline Cell Technology grown in VascuLife Media and transduced in Lifeline Basal EC (+bFGF2 10 ng/ml). The HUVEC experiment used the same strategy as the SMC2 experiment, with 40 ml of media from 2×15 cm dishes for each process replicate and used 200 ug each to generate TAILS data. Inputs for process replicate experiments were restricted to the lowest concentration from the 9 parallel samples for SMC2 or HUVEC.
TMT10 isotopic labeling and negative selection of non-labeled peptides-Sample preparation was performed based on the TAILS protocol from the Overall lab with some modifications. From a single experiment, nine parallel protein samples in 50 mM HEPES pH 8.0, 150 mM NaCl were separately denatured with guanidinium chloride (Sigma, G4505) to reach a final concentration of 2.5M guanidinium chloride and 250 mM HEPES and incubated at 65° C. for 15 min. Reduction was achieved through addition of tris(2-carboxylethyl) phosphine (TCEP) at a final concentration of […] and incubated at 65° C. for 45 min. Alkylation reaction was performed with addition of iodoacetamide (IAA, Sigma, A3221) to a final concentration of 10 mM IAA for 15 min at room temperature in the dark. Following denaturation, reduction and alkylation steps, ten percent of each of the nine parallel protein samples was removed and combined to serve as a pooled reference. Isobaric tags were added to free amine groups using the TMT10plex Isobaric Mass Tagging Kit (ThermoFisher, 90113) with TMT channels randomly assigned to the nine samples and TMT 131 assigned to the pooled reference. […]
Take “LOXL1_219 (VASAGVIYPYQPR; listed as Homo sapiens)”: the logFC.mWT.over.Luc stood at 1.56.

Turning to “LOXL2_37 (FQQPAPEYHQPQAPANVAKIQLR; listed as Homo sapiens)”, the logFC.mWT.over.Luc is on record as 3.27. “LOXL2_38 ([code q]QPAPEYHQPQAPANVAKIQLR; not fully specified; listed as Homo sapiens)” gave a logFC.mWT.over.Luc of 1.74.

Consider “LTBP1_393 (LTATNFR; listed as Homo sapiens)”, for which the logFC.mWT.over.Luc is 6.60. Same read-out and setting: with “LTBP1_540 (HQQVIPHVYPVAAKTQLGR; listed as Homo sapiens)” the figure was 1.82.

The experiment is the same for the next values; noted with them: SMC2_TAILS HC; log fold change, mWT over Luc.
In the case of “AEBP1_37 (FLEGFLSELEPEPR; listed as Homo sapiens)”, the logFC.mWT.over.Luc worked out at 3.21. Still for that read-out and setting: with “CCDC80_66 (LEEPNLQPLQR; listed as Homo sapiens)” the figure was 2.08. On the same count and under the same terms, with “EFEMP1_124 (AVAGPEMQTGR; listed as Homo sapiens)” the figure was 2.81. Still for that read-out and setting: the result for “EFEMP1_125 (VAGPEMQTGR; listed as Homo sapiens)” reads 1.43. As to “FBLN2_259 (ALGPPAPVQAKAR; listed as Homo sapiens)”, the logFC.mWT.over.Luc amounted to 1.61. The substance “FBLN2_260 (LGPPAPVQAKAR; listed as Homo sapiens)” registered a logFC.mWT.over.Luc of 1.98.

With “FBN1_29 (LEAGNVKETR; listed as Homo sapiens)”, the logFC.mWT.over.Luc is given as 3.33. In the case of “FBN1_53 (LKGPNVCGSR; listed as Homo sapiens)”, the logFC.mWT.over.Luc stood at 4.64.

In turn, “FLNA_1285 (LTQTGGPHVKAR; listed as Homo sapiens)” registered a logFC.mWT.over.Luc of 4.37.

With “FN1_36 (MVQPQSPVAVSQSKPGCYDNGKHYQINQQWER; listed as Homo sapiens)”, the logFC.mWT.over.Luc is 3.59. On the same count and under the same terms, the result for “FN1_40 (QSPVAVSQSKPGCYDNGKHYQINQQWER; listed as Homo sapiens)” reads 2.60; that for “FN1_1143 (LTPGVEYVYTIQVLR; listed as Homo sapiens)”, 2.31.

Substance “FN1_1656 (SSSPVTGYR; listed as Homo sapiens)” gave a logFC.mWT.over.Luc of 1.20. As for “GSN_413 (HIANVER; listed as Homo sapiens)”, the logFC.mWT.over.Luc was 1.91. Same read-out and setting: the result for “HSPG2_275 (LLPGSVR; listed as Homo sapiens)” reads 1.74; that for “HSPG2_2331 (ANLAYPAGSTQPIR; listed as Homo sapiens)”, 1.72; that for “HSPG2_2333 (LAYPAGSTQPIR; listed as Homo sapiens)”, 1.19. Consider “IGFBP3_31 (SAGLGPVVR; listed as Homo sapiens)”, for which the logFC.mWT.over.Luc worked out at 2.12.

On to “IGFBP3_32 (AGLGPVVR; listed as Homo sapiens)”, for which the logFC.mWT.over.Luc was 4.68. On the same count and under the same terms, with “IGFBP7_101 (AAGGPGVSGVCVCKSR; listed as Homo sapiens)” the figure was 2.53; with “LOX_58 (LSLGSQYQPQR; listed as Homo sapiens)”, 1.68; with “LOX_123 (HWFQAGYSTSR; listed as Homo sapiens)”, 1.37.

In turn, “LOX_124 (WFQAGYSTSR; listed as Homo sapiens)” displayed a logFC.mWT.over.Luc of 3.35. “LOX_126 (QAGYSTSR; listed as Homo sapiens)” gave a logFC.mWT.over.Luc of 2.77.
